Experiment [1] deals with T1, human prolactin receptor (PRLR) on cells (human, UniProt P16471 25-622).
T1 sequence: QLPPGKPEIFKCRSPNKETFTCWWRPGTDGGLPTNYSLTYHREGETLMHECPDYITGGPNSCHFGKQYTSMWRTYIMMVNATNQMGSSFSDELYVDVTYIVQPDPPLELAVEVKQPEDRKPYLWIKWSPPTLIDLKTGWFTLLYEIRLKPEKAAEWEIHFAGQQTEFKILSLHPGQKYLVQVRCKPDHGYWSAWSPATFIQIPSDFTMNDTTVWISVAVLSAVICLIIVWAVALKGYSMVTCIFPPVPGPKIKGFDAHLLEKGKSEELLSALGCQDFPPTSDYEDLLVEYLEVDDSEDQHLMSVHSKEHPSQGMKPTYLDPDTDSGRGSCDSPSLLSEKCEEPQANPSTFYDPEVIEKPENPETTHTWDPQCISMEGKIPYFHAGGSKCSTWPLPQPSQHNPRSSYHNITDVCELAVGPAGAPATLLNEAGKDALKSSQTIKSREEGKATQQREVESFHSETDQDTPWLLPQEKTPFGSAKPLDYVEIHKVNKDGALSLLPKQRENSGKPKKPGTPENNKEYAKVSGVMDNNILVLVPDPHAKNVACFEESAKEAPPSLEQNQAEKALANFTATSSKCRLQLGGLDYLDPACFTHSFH
Nature of the experiment: cell-based or functional assay.

Experiment [2] has as its target T1, human prolactin receptor (PRLR) on cells. Nature of the experiment: FACS, HEK293/hPRLR cells. Further: test concentration or dose not given here. A general note: A flow cytometer gives signals particle by particle.
The target of experiment [3] is T2, hPRLR.mFc (soluble dimeric human PRLR) (human).
T2 construct: dimeric construct
T2 chain: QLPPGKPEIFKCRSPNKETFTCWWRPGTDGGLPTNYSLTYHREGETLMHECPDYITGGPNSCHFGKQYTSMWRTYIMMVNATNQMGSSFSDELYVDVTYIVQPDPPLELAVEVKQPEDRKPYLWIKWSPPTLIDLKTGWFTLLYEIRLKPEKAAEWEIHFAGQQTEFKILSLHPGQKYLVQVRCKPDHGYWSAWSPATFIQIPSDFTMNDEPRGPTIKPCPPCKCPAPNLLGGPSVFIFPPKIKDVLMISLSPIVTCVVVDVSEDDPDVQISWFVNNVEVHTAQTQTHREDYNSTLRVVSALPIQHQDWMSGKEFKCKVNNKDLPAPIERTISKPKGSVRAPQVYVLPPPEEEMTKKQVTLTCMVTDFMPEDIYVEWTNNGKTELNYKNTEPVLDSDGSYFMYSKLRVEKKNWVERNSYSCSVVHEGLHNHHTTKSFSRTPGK
As to the kind of experiment: SPR, 37C, mAb capture. As for the experimental part: (§1) Measurements were conducted on a T200 Biacore instrument. Kinetic association (kₐ) and dissociation (kd) rate constants were determined by processing and fitting the data to a 1:1 binding model using Scrubber 2.0 curve fitting software. Binding dissociation equilibrium constants (KD) and dissociative half-lives (t_{1/2}) were calculated from the kinetic rate constants as: KD (M)=kd/kₐ; and […].
Background: Surface plasmon resonance follows binding to a sensor surface in real time, without labels.

Experiment [4] deals with T3, hPRLR.mmh (soluble monomeric human PRLR) (human).
T3 construct: soluble monomeric construct
T3 chain: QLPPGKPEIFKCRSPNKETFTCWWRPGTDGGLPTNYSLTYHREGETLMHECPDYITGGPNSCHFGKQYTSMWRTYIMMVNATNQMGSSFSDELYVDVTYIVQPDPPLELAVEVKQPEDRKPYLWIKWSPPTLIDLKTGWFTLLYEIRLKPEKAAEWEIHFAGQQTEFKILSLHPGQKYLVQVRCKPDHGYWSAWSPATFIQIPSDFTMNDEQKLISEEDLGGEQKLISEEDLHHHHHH
As to the kind of experiment: SPR, 37C, mAb capture. How it is done:
as §1

The target of experiment [5] is T4, mfPRLR.mmh (soluble monomeric macaca fascicularis PRLR) (macaca fascicularis).
T4 construct: soluble monomeric construct; also called macaca fascicularis (mf) PRLR.mmh
T4 chain: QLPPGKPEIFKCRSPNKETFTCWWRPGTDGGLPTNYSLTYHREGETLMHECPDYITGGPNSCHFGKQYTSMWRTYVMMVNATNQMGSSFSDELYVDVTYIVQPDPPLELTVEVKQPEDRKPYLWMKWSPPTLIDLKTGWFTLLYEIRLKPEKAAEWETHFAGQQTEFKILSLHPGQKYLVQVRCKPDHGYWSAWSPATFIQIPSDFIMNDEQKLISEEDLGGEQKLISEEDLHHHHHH
Nature of the experiment: SPR, 37C, mAb capture. How it is done: as §1

Experiment [6] deals with T5, mouse PRLR on HEK293 cells (mouse, UniProt Q08501 20-608).
T5 construct: whole, on cells; also called mPRLR; HEK293/mPRLR
T5 sequence (looked up): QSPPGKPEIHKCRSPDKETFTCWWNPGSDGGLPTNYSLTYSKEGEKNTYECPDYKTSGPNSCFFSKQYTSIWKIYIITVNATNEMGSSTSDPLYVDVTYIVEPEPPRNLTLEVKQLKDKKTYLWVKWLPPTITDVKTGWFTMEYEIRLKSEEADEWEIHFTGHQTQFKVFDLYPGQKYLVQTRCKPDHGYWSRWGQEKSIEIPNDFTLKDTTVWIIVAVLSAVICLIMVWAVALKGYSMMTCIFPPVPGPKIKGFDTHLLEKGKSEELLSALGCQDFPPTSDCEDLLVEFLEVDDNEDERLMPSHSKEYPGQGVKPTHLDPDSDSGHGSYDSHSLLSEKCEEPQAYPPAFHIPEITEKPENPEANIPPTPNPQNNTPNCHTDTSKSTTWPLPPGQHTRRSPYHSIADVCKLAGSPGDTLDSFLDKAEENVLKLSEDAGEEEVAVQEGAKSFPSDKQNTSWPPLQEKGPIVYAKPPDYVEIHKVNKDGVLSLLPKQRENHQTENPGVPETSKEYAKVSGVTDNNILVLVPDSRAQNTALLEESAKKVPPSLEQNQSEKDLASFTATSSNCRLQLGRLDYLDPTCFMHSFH
Nature of the experiment: FACS, HEK293/mPRLR cells. Further: test concentration or dose not given here.

Experiment [7] deals with T1, human prolactin receptor (PRLR) on cells. Nature of the experiment: FACS, T47D cells (native PRLR). Further: test concentration or dose not given here.
Experiment [8] concerns the target T6, monkey (macaca fascicularis) PRLR on HEK293 cells (macaca fascicularis, UniProt A0A2K5WXK1 25-619).
T6 construct: also called mfPRLR; HEK293/mfPRLR
T6 sequence: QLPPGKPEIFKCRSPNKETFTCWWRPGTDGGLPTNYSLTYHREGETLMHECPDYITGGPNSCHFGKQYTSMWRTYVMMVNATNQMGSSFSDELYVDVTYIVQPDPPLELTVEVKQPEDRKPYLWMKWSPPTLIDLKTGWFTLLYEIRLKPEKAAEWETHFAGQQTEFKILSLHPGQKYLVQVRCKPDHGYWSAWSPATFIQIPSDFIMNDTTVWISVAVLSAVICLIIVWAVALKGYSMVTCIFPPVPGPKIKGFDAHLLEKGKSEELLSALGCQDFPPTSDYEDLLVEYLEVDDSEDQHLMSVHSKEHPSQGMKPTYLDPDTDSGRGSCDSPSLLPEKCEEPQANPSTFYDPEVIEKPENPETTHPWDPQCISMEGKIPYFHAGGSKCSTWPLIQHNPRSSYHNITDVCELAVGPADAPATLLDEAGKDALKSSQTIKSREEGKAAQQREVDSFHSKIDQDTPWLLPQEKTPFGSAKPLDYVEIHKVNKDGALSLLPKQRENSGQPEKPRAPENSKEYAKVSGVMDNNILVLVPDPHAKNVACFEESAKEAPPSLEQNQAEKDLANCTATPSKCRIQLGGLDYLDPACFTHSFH
Nature of the experiment: FACS, HEK293/mfPRLR cells. Further: test concentration or dose not given here.

B1: H1H6781P (antibody, human IgG1, V domains shown)
VH: EVQLVESGGDLVQPGESLRLSCTASGFTFNSYEMNWVRQAPGKGLEWVSYISSSGGTKYYVDSVKGRFTISRDNAKKSLYLQMNSLRADDTALYYCARLNGVDVFDIWGQGTMVTVSS
VL: DIQMTQSPSSLSASVGDRVTITCRASQDIFNYLAWFQQKPGKVPELLISAASTLQSGVPSRFSGSGSGTYFTLTISSLQPEDIATYYCQRYNSAPLTFGGGTKVEIK
notes: human IgG1 Fc (H1H)
Take B1: the “% Internalization relative to Control I (alexa488 intensity in intracellular vesicles at 37 C, T47D cells)” value (“% Internalization relative to Control I” for short) in experiment [1] was determined as 165%. In addition, the “FACS Cell Binding (Fold Above Background)” value in experiment [2] stood at 37 fold above background; in experiment [6], 1 fold above background; in experiment [7] it was 40 fold above background; in experiment [8], 26 fold above background. In addition, the T½ in experiment [3] worked out at 117 min; in experiment [4], 37 min; in experiment [5] it was 43 min.

B2: H1H6783P (antibody, human IgG1, V domains shown)
VH: QVQLQQSGPGLVKPSQTLSLTCAISGDSVSSNTFAWNWIRQSPSRGLEWLGRTYYRSKWYIDYAESVKSRITITPDTSKNQFSLQLNSVTPEDTALYYCAGGYTYAPRGAFDIWGQGTMVTVSS
VL: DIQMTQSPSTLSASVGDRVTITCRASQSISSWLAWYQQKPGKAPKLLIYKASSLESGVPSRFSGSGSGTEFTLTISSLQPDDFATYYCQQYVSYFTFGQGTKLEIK
notes: human IgG1 Fc (H1H)
For B2, the “% Internalization relative to Control I” value in experiment [1] amounted to 161%. The “FACS Cell Binding (Fold Above Background)” value worked out at 37 fold above background in experiment [2], 1 fold above background in experiment [6], 38 fold above background in experiment [7] and 27 fold above background in experiment [8]. The T½ is 83 min in experiment [3], 7 min in experiment [4] and 9 min in experiment [5].

B3: H1H6958N2 (antibody, human IgG1, V domains shown)
VH: QVQLVESGGGVVQPGRSLRLSCGASGFTFRNYGMQWVRQGPGKGLEWVTLISFDGNDKYYADSVKGRFTISRDNSKNTLFLQMNSLRTEDTAVYYCARGGDFDYWGQGTLVTVSS
VL: DIQMTQSPSSLSASVGDRVTITCRASQDIRKDLGWYQQKPGKAPKRLIYAASSLHSGVPSRFSGSGSGTEFTLTISSLQPEDFATYYCLQHNSYPMYTFGQGTKLEIK
notes: also called H2M6958N2
In the case of B3, the “% Internalization relative to Control I” value in experiment [1] amounted to 169%. The “FACS Cell Binding (Fold Above Background)” value in experiment [2] turned out to be 35 fold above background; in experiment [6], 1 fold above background; in experiment [7] it was 37 fold above background; in experiment [8], 30 fold above background. For the same molecule, the T½ amounted to 83.3 min in experiment [3], 8.8 min in experiment [4] and 8.6 min in experiment [5].

B4: H1H6774P (antibody, human IgG1, V domains shown)
VH: EVQLVESGGGLAQPGGSLRLSCVASGFTFSTYWMSWVRQAPGKGLDWVGNIKQDGSEQNYVDSVRGRFTISRDNAKNSLFLQMNSLRAEDTGVYYCATLLTKGDYWGQGTLVTVSS
VL: DIQMTQSPSSLSASVGDSVTITCRASQDISNYLDWFQQKPGKAPKSLIYAASILQGGVPSRFSGSGYGTDFTLTISSLQPEDFATYYCRQYKTYPFTFGPGTKVDIK
notes: human IgG1 Fc (H1H)
For the molecule B4, the “% Internalization relative to Control I” value in experiment [1] is 162%. The “FACS Cell Binding (Fold Above Background)” value worked out at 1 fold above background in experiment [2], 1 fold above background in experiment [6], 39 fold above background in experiment [7] and 29 fold above background in experiment [8]. The T½ in experiment [3] came to 60 min; in experiment [4], 4 min; in experiment [5], 3 min.

B5: H1H6792P (antibody, human IgG1, V domains shown)
VH: EVQLVESGGGLVQPGRSLRLSCAASGFTLDDHAVHWVRQAPGKGLEWVSGISWNSVYIDYADSVKGRFTIFRDNAKNSLYLQMNSLRAEDTAFYYCARDIEGARDYWGQGTLVTVSS
VL: DIQMTQSPSSLSASVGDRVTITCRASQGIRNDLGWYQQKPGKAPKRLIYAASSLQSGVPSRFSGSGYGTEFTLTISSLQPEDFAPYYCLQHNSYPLTFGGGTKVEIK
notes: human IgG1 Fc (H1H)
Take B5: the “% Internalization relative to Control I” value in experiment [1] stood at 156%. Also, the “FACS Cell Binding (Fold Above Background)” value stood at 37 fold above background in experiment [2], 3 fold above background in experiment [6], 37 fold above background in experiment [7] and 28 fold above background in experiment [8]. Besides, the T½ came out at 66 min in experiment [3], 5 min in experiment [4] and 4 min in experiment [5].

B6: H1H6967N (antibody, human IgG1, V domains shown)
VH: EVQLVESGGDLVHPGRSLRLSCAASGFPFDEYAMHWVRQVPGKGLEWVSGISWSNNNIGYADSVKGRFTISRDNAKNSLYLQMNSLRPEDTAFYYCAKSGIFDSWGQGTLVTVSS
VL: EIVMTQSPATLSVSPGERATLSCRASQSVSRDLAWYQQKPGQAPRLLIHGASTRATGIPARFSGSGSGAEFTLIISSLQSEDFAVYYCQQYNNWPLTFGGGTKVEIK
notes: also called H2M6967N
In the case of B6, the “% Internalization relative to Control I” value in experiment [1] amounted to 169%. Also, the “FACS Cell Binding (Fold Above Background)” value in experiment [2] was determined as 38 fold above background; in experiment [6], 2 fold above background; in experiment [7], 41 fold above background; in experiment [8] it was 28 fold above background. Also, the T½ was 119 min in experiment [3], 12.4 min in experiment [4] and 7.1 min in experiment [5].

The record behind these values is US20150056222A1 (Regeneron, published 2015).
